The source of these data is the supplement of paper PMC10567573.

± gives the standard deviation.

A short description of the series: protein stability index of a GFP-peptide fusion (GPS, HEK-293T) (PSI 1-6); higher = more stable. The settings on record: c terminus: a fixed tail appended.
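Also: 24-mer peptide tiles fused after GFP, lentivirally expressed, FACS-sorted into six equal bins by GFP/DsRed ratio, decoded by Illumina sequencing, PSI is the read-weighted mean bin number.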

Take MALKTSLGSVQFMEQFCWPHLRSF: the protein stability index is 3.01 ± 0.86 (treatment: DMSO) and 2.69 ± 0.73 (treatment: MLN4924 1 uM, 8 h).
Taken in the same sequence, the figures for GGGPGDGGGADTGTGGEEVEALQL [FBXO33] were 5.38 ± 0.16 and 5.32 ± 0.37.
Consider REEVRGRELTGLKALYETELADAR [LMNB1], for which the protein stability index stood at 4.97 ± 0.2 (treatment: DMSO) and 4.83 ± 0.27 (treatment: MLN4924 1 uM, 8 h).
Taken in the same sequence, the figures for GTVHCQIVSTQITRPSGNNGNRRR [PHTF1] were 4.25 ± 0.18 and 4.51 ± 0.21.
Taken in the same sequence, the figures for ILEDMRCQYEALVENNRRDVEAWF [KRT36] were 2.49 ± 0.19 and 2.84 ± 0.45.
Taken in the same sequence, the figures for LYPNPRERSSFYSCAGGRLFQQSC [CHIT1] were 1.94 ± 0.21 and 2.37 ± 0.43.
QLLLQFERLVVLDYIIRNTDRGND [PI4K2A]: the protein stability index by setting is: (treatment: DMSO) 2.98 ± 0.47; (treatment: MLN4924 1 uM, 8 h) 2.64 ± 0.36.
Taken in the same sequence, the figures for LIYDFIEDQGGLEAVRQEMRRQEP [WAS] were 2.55 ± 0.28 and 2.75 ± 0.42.
Taken in the same sequence, the figures for MDYKSSLIQDGNPMENLEKQLICP [TRIM63] were 4.06 ± 0.29 and 4.14 ± 0.16.
Taken in the same sequence, the figures for KIGVGAMTWSPLACGIVSGKYDSG [KCNAB2] were 2.81 ± 0.27 and 2.85 ± 0.61.
As to EVSCQCQLHPPRWYSRLQACQWGG, the protein stability index is, setting by setting: (treatment: DMSO) 2.17 ± 0.13; (treatment: MLN4924 1 uM, 8 h) 2.29 ± 0.4.
On to SLFSQALKDEEAKVLQLTVRCEAL [CCDC89], for which the protein stability index (treatment: DMSO) was determined as 2.8 ± 0.26 and the protein stability index (treatment: MLN4924 1 uM, 8 h) came out at 2.76 ± 0.17.
Taken in the same sequence, the figures for APEFIKVRENLRRIATLTSEEREL [FAM107A] were 4.48 ± 0.31 and 4.62 ± 0.16.
Taken in the same sequence, the figures for CVPAHPPPCAWACPVPAHRRGSWR [CTBP1-DT] were 2.56 ± 0.19 and 2.77 ± 0.18.
Taken in the same sequence, the figures for VAFGIEADDESLLRTSNGQPVKTA [DNAAF3] were 4.47 ± 0.23 and 4.52 ± 0.16.
Take LKKGESECQYYIDKLEYLDEKQRD [NET1]: the protein stability index stood at 4.55 ± 0.15 (treatment: DMSO) and 4.5 ± 0.32 (treatment: MLN4924 1 uM, 8 h).
Taken in the same sequence, the figures for SILTDNPTWIIDPIDGTTNFVHRF [IMPA1] were 2.19 ± 0.26 and 2.12 ± 0.27.
For the sequence DLKARIDQNTVVTRQLSEENANLQ [MTUS2], the protein stability index was 4.83 ± 0.14 (treatment: DMSO) and 4.93 ± 0.083 (treatment: MLN4924 1 uM, 8 h).
Taken in the same sequence, the figures for GTDRIVKIWDMTPVVGCSLATGFS [WDFY1] were 2.66 ± 0.16 and 2.79 ± 0.48.
Taken in the same sequence, the figures for NQNNYRLLSCGKILTGCKNMLFQQ [ACSBG2] were 2.9 ± 1.2 and 2.3 ± 0.69.
Taken in the same sequence, the figures for RMEEIVEGCTGALHILARDVHNRI [CTNNB1] were 2.74 ± 0.19 and 2.89 ± 0.28.
The sequence TTTHAPPGVHRRYSALREESAKDW [PPFIA4] showed a protein stability index (treatment: DMSO) of 4.23 ± 0.3 and a protein stability index (treatment: MLN4924 1 uM, 8 h) of 4.47 ± 0.15.
Taken in the same sequence, the figures for VRRSSRKSKAELQSEERKRIDELI [KMT5A] were 4.62 ± 0.48 and 4.51 ± 0.39.
For VPTVSRPYSFIEFDTFIQKTKKLY [SEC22B], the protein stability index reads like this: (treatment: DMSO) 2.3 ± 0.34; (treatment: MLN4924 1 uM, 8 h) 2.47 ± 0.17.
Taken in the same sequence, the figures for SLDFTKKILHTAWHPAENIIAIAA [PPP2R2C] were 2.58 ± 0.59 and 2.29 ± 0.31.
Taken in the same sequence, the figures for MITVQLPEVPANENIKGYYIIIVP [PTPRD] were 3 ± 0.77 and 2.99 ± 0.62.
Turning to FLVVLKTVLENEDDMLLFDEQEKG [FAN1], the protein stability index reads like this: (treatment: DMSO) 2.34 ± 0.23; (treatment: MLN4924 1 uM, 8 h) 2.28 ± 0.26.
On to KPGPQDTVERPFYDLWASDNPLDR [NOP53], for which the protein stability index is, setting by setting: (treatment: DMSO) 4.45 ± 0.43; (treatment: MLN4924 1 uM, 8 h) 4.38 ± 0.16.
As to EDEGFLREEERPLPRRDFQRQVWL [KCNA3], the protein stability index came out at 3.97 ± 0.1 (treatment: DMSO) and 4 ± 0.4 (treatment: MLN4924 1 uM, 8 h).
Taken in the same sequence, the figures for PLSWAPCGPIAGSRQALSFEVPPC were 3.21 ± 0.29 and 3.07 ± 0.19.
Taken in the same sequence, the figures for GVYSMPAGTKVFEVPEMSPVTCCD [TLE6] were 3.84 ± 0.33 and 3.45 ± 0.24.
Taken in the same sequence, the figures for FYKDWWNSTSYSNYYRTWNVVVHD [SOAT1] were 2.46 ± 0.39 and 2.15 ± 0.31.
For LNQQVVSSSEQLQCCQTEIIELRR [KRT36], the protein stability index reads like this: (treatment: DMSO) 4.29 ± 0.22; (treatment: MLN4924 1 uM, 8 h) 4.04 ± 0.27.
Taken in the same sequence, the figures for IGGNHLKGFSHLDVMLVECYDPKG [KLHL14] were 2.11 ± 0.47 and 2.21 ± 0.34.
As to SIEEILEEQRVEQQTKLEAEKLKV [LSM1], the protein stability index was 5.11 ± 0.34 (treatment: DMSO) and 5.2 ± 0.22 (treatment: MLN4924 1 uM, 8 h).
Taken in the same sequence, the figures for EFPEDPEFEAVVRQAELAIERCIF [PI4K2A] were 2.72 ± 0.1 and 2.96 ± 0.22.
On to AEVNAVDNEGNSALHIIVQYNRPI [FEM1B], for which the protein stability index turned out to be 2.48 ± 0.25 (treatment: DMSO) and 2.48 ± 0.23 (treatment: MLN4924 1 uM, 8 h).
